Results on 12 molecules are retold here after patent US20170088605A1 (Novartis, published 2017).

Assay in all cases: cell-based or functional assay
For experiment [1], the target named is T1, BKV serotype I infectious virus (VP1) (BK virus serotype I, UniProt P03088 1-362).
T1 sequence (looked up): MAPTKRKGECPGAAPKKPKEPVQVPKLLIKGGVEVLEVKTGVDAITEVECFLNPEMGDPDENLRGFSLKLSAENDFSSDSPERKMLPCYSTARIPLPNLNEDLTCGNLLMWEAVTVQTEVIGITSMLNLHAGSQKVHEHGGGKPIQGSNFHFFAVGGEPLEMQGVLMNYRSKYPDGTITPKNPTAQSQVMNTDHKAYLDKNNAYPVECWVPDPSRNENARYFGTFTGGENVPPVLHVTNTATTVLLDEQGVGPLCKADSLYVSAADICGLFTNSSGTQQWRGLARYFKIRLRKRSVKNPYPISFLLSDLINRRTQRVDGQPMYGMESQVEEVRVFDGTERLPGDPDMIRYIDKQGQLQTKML

Experiment [2] addresses T2, BKV serotype II chimeric infectious virus (VP1 of isolate SB) (BK virus serotype II).
The target of experiment [3] is T3, BKV serotype IV chimeric infectious virus (VP1 of strain ITA-4) (BK virus serotype IV).
In experiment [4] the target is JCV infectious virus, isolates Mad-1 and Mad-4 (VP1) (JC virus).
Experiment [5] addresses T4, BKV serotype III chimeric infectious virus (VP1 of isolate AS) (BK virus serotype III).
Experiment [6] concerns the target T1, BKV serotype I infectious virus (VP1). This is another data set of the same source.
Experiment [7] deals with T2, BKV serotype II chimeric infectious …. This is another data set of the same source.
Experiment [8] concerns the target T3, BKV serotype IV chimeric infectious …. The source holds these as a separate data set.
For experiment [9], the target named is T4, BKV serotype III chimeric infectious …. This is another data set of the same source.
In experiment [10] the target is T1, BKV serotype I infectious virus (VP1). The source holds these as a separate data set.

Numbering of substitutions follows the chain as printed. Read-outs that look alike come from different tables or passages of the source.

B1: 2075-16-1 (antibody, V domains shown)
VH: QVQLQQPGSELVRPGASVKLSCKASGYTFTNYWMHWVKQGHGQGLEWIGNIYPGSGNTNYGENFKSKGTLTVDTSSSTAYMHLSRLTSEDSAVYYCSRSAIYYGYDGHYFAMDYWGQGTSVTVSS
VL: DIQMTQSPSSLSASLGGKVTITCKASQDIRKYIAWYQHKPGKGPRLLINYTSTLQSGIPSRFRGSGSGRDYSFSISNLEPEDIATYYCLQYDNILFTFGTGTKLEIK
Consider B1, for which, in experiment [1], the “neutralization EC50” value is 0.065 µg/mL and the “neutralization EC90” value is 1.25 µg/mL.

B2: 2075-456-4 (antibody, V domains shown)
VH: QVHLQQSGPELVKPGASVTISCKTSGYSFSSCWMNWVKQRPGQGLEWIGRIYPGDGDTKYTEKFKDKATLTADKSSSTAYMQLSSLTSVDSALYFCAISGSGLPYWGQGTLVTVSE
VL: DIQMTQTTSSLSASLGDRVTISCRASQDIHNYLNWYQQKPDGTIKLLIYSTSRLHSGVPSRFSGSGSGTHYSLTINNLEQEDIATYFCQQTHTLPLTFGAGTKLELK
B2: in [1], the “neutralization EC50” value turned out to be 0.092 µg/mL and the “neutralization EC90” value was found to be 0.503 µg/mL.

B3: 2081-38-5 (antibody, V domains shown)
VH: QVQLQQSGPELVKPGASVKISCKASGYTFSSSWINWVKQRPGQGLEWIGRIYPGDGDTNYNGKFKGKATLTADKSSSTVDMHLSSLTYVDSAVYFCAIHSSGFPHWGQGTLVTVSA
VL: DIQMTQTTSSLSASLGGRVTISCRTSQDISDYLNWYQQKPDGAVKLLIYYTSRLHSGVPSRFSGSGSGTDYSLTISNLEQEDIATYFCQQTNTLPFTFGGGTKLEIK
In the case of B3, in [1], the “neutralization EC50” value is 0.053 µg/mL and the “neutralization EC90” value was 1.8 µg/mL.

B4: 2081-66-5 (antibody, V domains shown)
VH: QVQLQQSGPELVKPGASVRISCKVSGFTFSNSWMNWVKQRPGQGLEWIGRIYPGDGDTQYNEKFKGKATLTADTSSNTAYIQLNSLTSVDSAVFFCARSRSGLDYWGQGTTLTVSS
VL: DIQMTQSTSSLSASLGDRVTISCRASQDIYNYLNWFQQKPDGTVKPLIYSTSRLHSGVSSRFSGSGSGTDYSLTISNLEREDIATYFCHQSHTVPFTFGSGTKLEIK
With B4, in experiment [1], the “neutralization EC50” value was 0.041 µg/mL and the “neutralization EC90” value was determined as 0.601 µg/mL.

B5: NEG447 (antibody, human IgG1, lambda, V domains shown)
VH: QVQLQESGPGLVKPSETLSLTCTVSGGSISRDYWSWVRQPPGAGLEWIGNIYYSGSTNYNPSLKSRVTISVATNKKQFSLKLTSVTAADTAVYYCARVPGCSSTSCIDGWFDPWGQGILVTVSS
VL: QSVLTQPPSLSAAPGQKVTISCSGSSSNIGNTYVSWYQQLPGTAPKLLIYDNNKRPSGIPDRFSGSKSGTSATLGITGLQTGDEAVYYCGTWDSSLSAWVFGGGTRLTVLG
For B5, the “neutralization EC50” value was 0.024 µg/mL in [2]; 0.012 µg/mL in [3]; over 100 µg/mL in experiment [4]; over 100 µg/mL in [5]; 0.004 µg/mL in experiment [6]. Moreover, the “neutralization EC90” value in experiment [2] was 6.72 µg/mL; in [3] it was 0.34 µg/mL; in experiment [4], over 100 µg/mL; in experiment [5] it was over 100 µg/mL; in experiment [6], 0.27 µg/mL.

B6: P165E2 (antibody, human IgG1, lambda, V domains shown)
VH: B5 VH with S35T, A43E, T73A, N74S
VL: B5 VL with K17R, D61G, V86A
Take B6: the “neutralization EC50” value is 0.081 µg/mL in [2]; 0.012 µg/mL in experiment [3]; over 100 µg/mL in [4]; over 100 µg/mL in experiment [5]; 0.009 µg/mL in [6]. Further, the “neutralization EC90” value was 7.98 µg/mL in [2]; 0.46 µg/mL in [3]; over 100 µg/mL in experiment [4]; over 100 µg/mL in experiment [5]; 0.37 µg/mL in experiment [6].

B7: P7G11A (antibody, human IgG1, lambda, V domains shown)
VH: QVQLQESGPGLVKPSQTLSLTCTVSGGSISSGGYSWSWIRQPPGKGLEYIGYIYYRGTTYYNPSLKSRVTISVDTSNNQISLKLSSVTAADTAVYYCARALTHLVGVGWFDPWGQGTMVTVSS
VL: B5 VL with L10V, S25G, I29L, N31S, T32N, V86D, S94G, R106K, L107V
For B7, the “neutralization EC50” value in experiment [2] is 0.074 µg/mL; in experiment [3], 0.015 µg/mL; in experiment [4], over 100 µg/mL; in [5], over 100 µg/mL; in [6], 0.0008 µg/mL. For the same molecule, the “neutralization EC90” value in experiment [2] is 2.89 µg/mL; in [3], 0.53 µg/mL; in experiment [4], over 100 µg/mL; in [5] it was over 100 µg/mL; in [6] it was 0.34 µg/mL.

B8: P7G11 (antibody, human IgG1, lambda, V domains shown)
VH: B7 VH with V12A, T23S, V69I, I71M, S85T
VL: B5 VL with L10V, S25G, I29L, N31S, T32N, V86D, S94G, R106K, L107V
Turning to B8, the “neutralization EC50” value in experiment [2] is 0.187 µg/mL; in experiment [3] it was 0.011 µg/mL; in experiment [4] it was over 100 µg/mL; in [5], over 100 µg/mL; in [6], 0.007 µg/mL. For the same molecule, the “neutralization EC90” value was 1.79 µg/mL in experiment [2]; 0.48 µg/mL in [3]; over 100 µg/mL in [4]; over 100 µg/mL in experiment [5]; 0.37 µg/mL in [6].

B9: EBB-C1975-B5 (antibody, human IgG1, kappa, V domains shown)
VH: QVQLVQSGPGLVKPSETLSLTCTVSGGSTSAYYWTWIRQPPGKGLEWIGYISHSGSTNYNPSLKSRVTISADTSKNQLSLKVNSVTAADTAVYYCARLGDTASLSRFYYYIDVWGKGTTVTVSS
VL: EIVMTQSPDTLSLSPGERATLSCRASQSVSSNYLAWYQQKPGEAPRLLIYGASSRATGIPDRFSGSGSGTDFTLTISRLEPEDFAVYYCQQYGSSPPYTFGQGTRLEIKR
For the molecule B9, the “neutralization EC50” value in experiment [7] was 0.42 µg/mL; in experiment [8], 0.15 µg/mL; in experiment [9], 0.76 µg/mL; in experiment [10], 0.033 µg/mL. In addition, the “neutralization EC90” value in experiment [7] was 24.2 µg/mL; in experiment [8] it was 7.83 µg/mL; in [9] it was over 100 µg/mL; in experiment [10], 5.53 µg/mL.

B10: 2081-25-6 (antibody, V domains shown)
VH: QVQLQQSGAELVRPGSSVKISCKASGYAFSRYWMNWVKQRPGQGLEWIGQIYPGDGDTKYNGKFKDTATLTADKSSSTAYLQLSSLTSEDSAVYFCAKYGNYGMDYWGQGTSVTVSS
VL: DAVMTQTPLSLPVSLGDQASISCRSSQSLEYGNGNTYLNWYLQKPGQSPQLLIYRVSNRFSGVLDRFSGSGSGTDFTLKISRVEAEDLGVYFCLQFTHVPYTFGGGTKLEIK
Consider B10, for which, in experiment [1], the “neutralization EC50” value came to 0.213 µg/mL and the “neutralization EC90” value was 0.723 µg/mL.

B11: EBB-C1975-A3 (antibody, V domains shown)
VH: EVQLVETGGGLVQPGGSLRLSCAASGFTVRRNYMSWVRQAPGKGLEWVSGIYSGGSTYYADSVKGRFTISRDYSKNTLSLQMNTLRVEDTAVYFCAREDEFWSGYSAGVDWGQGTLVTVSS
VL: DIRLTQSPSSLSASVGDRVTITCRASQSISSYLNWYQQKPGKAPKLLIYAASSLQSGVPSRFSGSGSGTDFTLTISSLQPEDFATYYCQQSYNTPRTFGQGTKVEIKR
B11: the “neutralization EC50” value in experiment [7] was 0.12 µg/mL; in [8], 0.13 µg/mL; in experiment [9] it was over 100 µg/mL; in [10], 0.045 µg/mL. Also, the “neutralization EC90” value in [7] is 25.2 µg/mL; in [8] it was 8.18 µg/mL; in [9], over 100 µg/mL; in [10] it was 4.84 µg/mL.

B12: EBB-C1975-E7 (antibody, human IgG1, kappa, V domains shown)
VH: B11 VH with V5L, T7S, Q13R, L20V, R30S, S53G, S56R, D61E, S79F, V92L
VL: DIQVTQSPSSLSASVGDRVTITCRASQSISSYLNWYQQEPGKAPKLLIYAASTLQTGVPSRFSGSGSGTDFTLTISSLQPEDFATYYCQQSYNTPRTFGQGTKVEIKR
On to B12, for which the “neutralization EC50” value in experiment [7] was 0.33 µg/mL; in experiment [8], 0.35 µg/mL; in experiment [9], over 100 µg/mL; in [10], 0.01 µg/mL. In addition, the “neutralization EC90” value in experiment [7] was 9.61 µg/mL; in [8] it was 8.61 µg/mL; in experiment [9] it was over 100 µg/mL; in experiment [10] it was 2.62 µg/mL.
